Patent US20240409645A1 (published 2024)

T1: human IL-2 receptor IL-2Rα/IL-2Rβ/γc on HEK-Blue IL-2 cells (UniProt P01589 22-272; P14784 27-551; P31785 23-369)
T1 chain 1: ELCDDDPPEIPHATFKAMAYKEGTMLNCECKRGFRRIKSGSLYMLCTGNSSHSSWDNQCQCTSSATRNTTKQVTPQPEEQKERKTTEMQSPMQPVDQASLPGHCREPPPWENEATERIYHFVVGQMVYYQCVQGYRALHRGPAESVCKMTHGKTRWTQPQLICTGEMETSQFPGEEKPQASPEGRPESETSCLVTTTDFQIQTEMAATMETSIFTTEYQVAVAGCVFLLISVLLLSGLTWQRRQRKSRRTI
T1 chain 2: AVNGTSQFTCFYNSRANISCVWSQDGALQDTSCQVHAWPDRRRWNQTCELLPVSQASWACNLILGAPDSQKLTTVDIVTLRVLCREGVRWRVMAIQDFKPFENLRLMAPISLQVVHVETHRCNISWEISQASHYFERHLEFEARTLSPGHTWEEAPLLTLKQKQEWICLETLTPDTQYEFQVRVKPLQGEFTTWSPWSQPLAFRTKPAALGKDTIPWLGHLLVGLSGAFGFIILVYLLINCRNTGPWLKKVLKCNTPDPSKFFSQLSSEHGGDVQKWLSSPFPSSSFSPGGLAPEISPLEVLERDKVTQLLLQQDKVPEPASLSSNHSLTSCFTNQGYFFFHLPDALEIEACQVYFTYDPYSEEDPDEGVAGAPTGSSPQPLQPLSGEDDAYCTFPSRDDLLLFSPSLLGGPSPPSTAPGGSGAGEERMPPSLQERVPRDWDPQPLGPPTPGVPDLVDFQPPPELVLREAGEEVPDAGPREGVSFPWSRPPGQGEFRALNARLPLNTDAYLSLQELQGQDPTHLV
T1 chain 3: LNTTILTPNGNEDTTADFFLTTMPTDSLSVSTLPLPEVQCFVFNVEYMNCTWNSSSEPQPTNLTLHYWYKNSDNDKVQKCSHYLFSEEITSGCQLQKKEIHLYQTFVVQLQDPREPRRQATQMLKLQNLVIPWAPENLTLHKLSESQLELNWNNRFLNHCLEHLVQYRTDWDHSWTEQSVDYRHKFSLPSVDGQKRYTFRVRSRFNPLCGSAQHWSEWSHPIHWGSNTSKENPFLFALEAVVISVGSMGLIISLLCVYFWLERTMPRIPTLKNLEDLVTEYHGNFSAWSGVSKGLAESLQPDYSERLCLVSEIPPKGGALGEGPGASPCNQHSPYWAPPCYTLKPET


What was measured:
[1] = molecular target: T1, human IL-2 receptor IL-2Rα/IL-2Rβ/γc on …; experiment: FACS cell binding; monovalent
[2] = molecular target: T1, human IL-2 receptor IL-2Rα/IL-2Rβ/γc on …; experiment: FACS cell binding; avid

| Binder | EC50 [1] | EC50 [2] |
| --- | --- | --- |
| 3-MP01E03 VHH-hFc, monospecific monovalent (Fc fusion) VHH: QVQLVESGGGLVQAGGSLRLSCTASGRTLSSYSMAWFRQAADKGREFVTAISSSGVVTHVLDSVKGRFTISRDNAKNTVYLQMNSLQPEDTALYFCAGTASSYSTYEANYNYWGQGTLVTVSS | 3.3 nM | – |
| 7-MP01G08 VHH-hFc, monospecific monovalent (Fc fusion) VHH: EVQLVESGGGLVQAGGSLRLSCAASGRAFSMYNMGWFRQAPGKEREFVAATGWSGANTPYADSVKGRFTISRDNTQNTVYLQMNSLKPEDTATYYCAADSIRLRSDVTRIPLEYDYWGQGTQVTVSS | 4.7 nM | – |
| 8-MP01C12 VHH-hFc, monospecific monovalent (Fc fusion) VHH: QVQLVESGGGLVQPGGSLRLSCATSGFTFSNNFMSWVRQAPGKGLEFVSTISYGGESTTYAEAVKGRFTISRDNAKNTLYLQMNNLKPEDTAIYYCAKATSYTSIRGAPRGQGTQVTVSS | 2.7 nM | – |
| 1-MP01H01 VHH-hFc, monospecific monovalent (Fc fusion) VHH: EVQLVESGGGLVQAGGSLRLSCAASGRTFRTHNMGWFRRAPGKEREFVAAISWNVDNTLYADSVKGRFTISRDNGRNMVYLQMNSLKPEDTAVYYCAADNIPLSSDVAATATEYDYWGQGTQVTVSS | 135 nM | – |
| 4-MP01F04 VHH-hFc, monospecific monovalent (Fc fusion) VHH: QVQLVESGGGLVQAGGSLRLSCAASGGTFRTRNMGWFRRAPGKEREFVAAVSWNVDNKLYADSVKGRFTISRDNGRNMVYLQMNSLKPEDTAVYYCAADNIPLSSDMRPTATEYDYWGQGTQVTVSS | 2.2 nM | – |
| 6-MP01G05 VHH-hFc, monospecific monovalent (Fc fusion) VHH: QVQLQESGGGLVQAGGSLRLSCAASGRTFSSYAMGWFRQAPGKEREFVAVISWNVDNTEYTDSVKGRFTISRDNDKNMVYLQMNSLKPEDTAVYYCAADSIPLSSDMSPTATEYGYWGQGTQVTVSS | 5.6 nM | – |
| 5-MP01F05 VHH-hFc, monospecific monovalent (Fc fusion) VHH: EVQLVESGGGLVQAGGSLRLSCAASIRAFTTWSMAWFRQAPGKEREYVARINVSGSVTYYADFVKGRFTISRDNAKKTMYLEMNNLKPEDTALYYCAADRTGVGTNDYNYWGQGTQVTVSS | 9.2 nM | – |

Now from value to binder:

| EC50 [1] | EC50 [2] | Binder |
| --- | --- | --- |
| 2 nM | – | 10-MP05F03 VHH-hFc, monospecific monovalent (Fc fusion) VHH: QVQLVESGGGLVQAGGSLRLSCAASGIPFDNYAMGWFRQAPGKEREFVAARDLEGIITRYGDSVKGRFTISRGNAKNTVFLQMNSLKPEDTAVYYCAARDGGVVAGSRSSAQYNYWGQGTQVTVSS |
| 2.3 nM | – | 9-MP05G01 VHH-hFc, monospecific monovalent (Fc fusion) VHH: EVQLVESGGGLVQAGGSLRLSCAASGGSIYTYNMGWFRQAPGKEREFVAGTLWSGGDSVYADFAKGRFTLSRENAKNTLYLQMNSLKPEDTATYYCAIDPLSLTSDWRVDELSSWGKGTLVTVSS |
| 5.9 nM | – | 11-MP05H04 VHH-hFc, monospecific monovalent (Fc fusion) VHH: QLQLVESGGGLVQAGGSLRLSCAASGLTFEGYAIGWFRQAPGKEREGVSYITGSDGTTYYINSVKGRFTISSDNAKSTVYLQMNTLKPEDTAVYYCAVDRLGSQGRYASAWWRSGDMDLWGKGTQVTVSS |
| – | 23.5 nM | BsVHH-7 (31x18) (antibody) QVQLVESGGGLVQAGGSLRLSCTGYGGAFTGYALGWFRQAPGKEREFVARINWSGSFTYYASSVKGRFTISRDNAKNTMYLQMNNLKPEDTAVYYCAADNPSTLATDYDNWGQGTQVTVSSGGGGSGGGGSGGGGSGSQVQLVESGGGLVQPGGSLRLSCAISGGTLDSYGIGWVRQAPGKQREGVSCMSRSDDRTYYADSVKGRFTISKDSAKNTVYLQMTSLKPEDTAVYYCAAVDAYGCSLVQPTTYDFWGLGTQVTVSSGGGGSGGGGSGGGGSTVSSDKTHTCPPCPAPEAAGGPSVFLFPPKPKDTLMISRTPEVTCVVVDVSHEDPEVKFNWYVDGVEVHNAKTKPREEQYNSTYRVVSVLTVLHQDWLNGKEYKCKVSNKALGAPIEKTISKAKGQPREPQVYTLPPSRDELTKNQVSLTCLVKGFYPSDIAVEWESNGQPENNYKTTPPVLDSDGSFLLYSKLTVDKSRWQQGNVFSCSVMHEALHNHYTQKSLSLSPGK |
| 8.5 nM | – | 12-MP05B12 VHH-hFc, monospecific monovalent (Fc fusion) VHH: QVQLVESGGGLVQAGGSLRLSCAASGFTFDGYAIGWFRQAPGKEREGVSYITGSDGSTYYADSVKGRFTISSNNAKNTVYLHMNSLKPDDAAVYYCAIDRLGSRGAYVPIWWRSSDMDLWGKGTLVTVSS |
| – | 88.3 nM | BsVHH-15 (36x19) (antibody) QVQLVESGGGLVQAGGSLRLSCAASGRTLSRYAMGWFRQAPGSEREFVAASSWGGDTFYADSVEGRFTFSRDNAKNAVYLQMNSLQPEDTAAYYCAAAPTSFPTTAYSSSNSYAYWGQGTQVTVSSGGGGSGGGGSGGGGSGSEVQLVESGGGLVQTGGSLRLSCAASGGTFSRDAMAWFRQVPGKEREFVALISWSGATTNYADSVKGRFAISRDNGKNTVYLQMNRLKPADTAIYYCAADRRPMGSRSYFEPTEYDDWGQGTQVTVSSGGGGSGGGGSGGGGSTVSSDKTHTCPPCPAPEAAGGPSVFLFPPKPKDTLMISRTPEVTCVVVDVSHEDPEVKFNWYVDGVEVHNAKTKPREEQYNSTYRVVSVLTVLHQDWLNGKEYKCKVSNKALGAPIEKTISKAKGQPREPQVYTLPPSRDELTKNQVSLTCLVKGFYPSDIAVEWESNGQPENNYKTTPPVLDSDGSFLLYSKLTVDKSRWQQGNVFSCSVMHEALHNHYTQKSLSLSPGK |
| 3.2 nM | – | 13-MP05E12 (antibody, V domains shown) VH: QVQLQESGGGLVQAGDSLRLSCAASGFNFGWHAMGWFRQAPGKEREFVATITWTGRDTYYADSVRGRFTISKDNAKDTLFLQMNSLRPDDTGVYYCAKARERATWAYSEDDCDYWGQGTQVTVSS |
| – | 1.3 nM | BsVHH-9 (35x18) (antibody) QVQLQESGGGLVQGGGSLRLSCAASGGIFSSYAMGWFRQAPGKEREFVAAISRSGRSTNYADSVKGRFTISRDNAKSTVYLQMNSLKPEETAVYYCAAGRYYNSAYDPSPGDFGSWGHGTQVTVSSGGGGSGGGGSGGGGSGSQVQLVESGGGLVQPGGSLRLSCAISGGTLDSYGIGWVRQAPGKQREGVSCMSRSDDRTYYADSVKGRFTISKDSAKNTVYLQMTSLKPEDTAVYYCAAVDAYGCSLVQPTTYDFWGLGTQVTVSSGGGGSGGGGSGGGGSTVSSDKTHTCPPCPAPEAAGGPSVFLFPPKPKDTLMISRTPEVTCVVVDVSHEDPEVKFNWYVDGVEVHNAKTKPREEQYNSTYRVVSVLTVLHQDWLNGKEYKCKVSNKALGAPIEKTISKAKGQPREPQVYTLPPSRDELTKNQVSLTCLVKGFYPSDIAVEWESNGQPENNYKTTPPVLDSDGSFLLYSKLTVDKSRWQQGNVFSCSVMHEALHNHYTQKSLSLSPGK |
| – | 1.9 nM | BsVHH-8 (32x18) (antibody) QVQLVESGGGLVQAGGSLRLSCAASGRTFGSTAVGWFRQVPGKEREFVSAINRSGSATTYADSVKGRFTISRDNAKNTVYLQMNSLTPEDTGVYYCAADSLPYGRPYYFQRSAGEYDYWGQGTQVTVSSGGGGSGGGGSGGGGSGSQVQLVESGGGLVQPGGSLRLSCAISGGTLDSYGIGWVRQAPGKQREGVSCMSRSDDRTYYADSVKGRFTISKDSAKNTVYLQMTSLKPEDTAVYYCAAVDAYGCSLVQPTTYDFWGLGTQVTVSSGGGGSGGGGSGGGGSTVSSDKTHTCPPCPAPEAAGGPSVFLFPPKPKDTLMISRTPEVTCVVVDVSHEDPEVKFNWYVDGVEVHNAKTKPREEQYNSTYRVVSVLTVLHQDWLNGKEYKCKVSNKALGAPIEKTISKAKGQPREPQVYTLPPSRDELTKNQVSLTCLVKGFYPSDIAVEWESNGQPENNYKTTPPVLDSDGSFLLYSKLTVDKSRWQQGNVFSCSVMHEALHNHYTQKSLSLSPGK |
